The results in this text go back to PMC5847621 (Nature Communications, 2018).

As usually defined, the Kd is a measure of binding affinity in units of concentration. The term stoichiometry N denotes the number of molecules, sites or subunits per partner or assembly.

The experiment has as its target T1, VSV Gth, soluble form of the ectodomain of VSV glycoprotein G (residues 1-422) (Vesicular stomatitis virus (Mudd-Summer …, UniProt P0C2X0 17-438)).
T1 sequence: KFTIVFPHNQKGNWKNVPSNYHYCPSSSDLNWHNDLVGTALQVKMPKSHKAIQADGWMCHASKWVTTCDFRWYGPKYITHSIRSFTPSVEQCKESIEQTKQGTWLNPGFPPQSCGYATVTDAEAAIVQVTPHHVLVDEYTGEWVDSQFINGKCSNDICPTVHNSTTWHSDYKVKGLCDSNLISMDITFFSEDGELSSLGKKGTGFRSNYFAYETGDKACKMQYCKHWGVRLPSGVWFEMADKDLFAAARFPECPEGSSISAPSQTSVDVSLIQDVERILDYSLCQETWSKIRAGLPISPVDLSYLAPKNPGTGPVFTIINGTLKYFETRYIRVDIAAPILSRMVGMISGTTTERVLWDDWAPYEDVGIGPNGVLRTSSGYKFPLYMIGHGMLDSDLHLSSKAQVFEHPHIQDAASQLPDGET
In words: ITC. The settings on record: both partners purified.

B1: LDL-R CR3 domain, isolated (GST cleaved off) (domain or fragment)
chain: not shown
notes: also called CR3 monovalent domain; not shown: GST, N-terminal, cleaved
Turning to B1, the Kd came out at 4.3 µM and the “stoichiometry N” value is 1.

B2: LDL-R CR2 domain, isolated (GST cleaved off) (domain or fragment)
chain: not shown
notes: also called CR2 monovalent domain; not shown: GST, N-terminal, cleaved
With B2, the Kd was 7.3 µM and the “stoichiometry N” value stood at 1.
